Like-named read-outs stand apart in the source and are kept apart here. Values belong to the molecule of their own block, whether it stands above or below them.
What was measured:
[1] = target: T1, BCAA aminotransferase BatA (Mortierella alpina, UniProt A0A9P6M176); assay: activity of purified enzyme with and without PLP (HILIC-UHPLC-MS); type: biochemical
T1 construct: gene BCAT1; 374 aa), N-terminally His6-tagged

[2] = target: T2, α-isopropylmalate synthase LeuA1 (Mortierella alpina, UniProt A0A9P6IVH7); assay: continuous DTNB assay of CoA release with purified recombinant enzyme; type: biochemical
T2 construct: gene BGZ70_001638; N-terminally His6-tagged LeuA1

[3] = target: LeuA1, α-isopropylmalate synthase of Mortierella alpina (Mortierella alpina); assay: SEC; size exclusion chromatography of the purified His6-tagged proteins in solution; conditions are in the Supplementary Materials
purified protein = substrate: CC(=O)SCCNC(=O)CCNC(=O)[C@H](O)C(C)(C)COP(=O)(O)OP(=O)(O)OC[C@H]1O[C@@H](n2cnc3c(N)ncnc32)[C@H](O)[C@@H]1OP(=O)(O)O; assay: purified protein; conditions: divalent cation (Mg2+, exchangeable with Ca2+ or Mn2+)
[4] = substrate: CC(C)C(=O)C(=O)O; assay: Michaelis-Menten kinetics (KM), DTNB assay with purified recombinant enzyme; type: biochemical, Mortierella alpina; conditions: divalent cation (Mg2+, exchangeable with Ca2+ or Mn2+) substrate binding pocket
[5] = substrate: CCC(=O)C(=O)O; assay: as above; type: biochemical, Mortierella alpina; conditions: divalent cation (Mg2+, exchangeable with Ca2+ or Mn2+)

T1 sequence (A0A9P6M176 entry or part of it): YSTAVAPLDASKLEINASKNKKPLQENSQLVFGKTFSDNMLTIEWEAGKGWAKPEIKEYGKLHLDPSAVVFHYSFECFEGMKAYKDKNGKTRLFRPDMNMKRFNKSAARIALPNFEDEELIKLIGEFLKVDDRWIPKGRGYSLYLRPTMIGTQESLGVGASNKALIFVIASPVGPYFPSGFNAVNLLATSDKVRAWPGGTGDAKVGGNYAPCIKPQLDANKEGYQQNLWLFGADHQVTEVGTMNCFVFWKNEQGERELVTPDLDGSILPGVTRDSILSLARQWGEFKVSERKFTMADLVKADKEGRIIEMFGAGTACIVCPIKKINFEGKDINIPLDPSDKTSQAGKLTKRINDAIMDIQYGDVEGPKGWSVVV

Molecule: Cc1ncc(COP(=O)(O)O)c(C=O)c1O [PLP, pyridoxal phosphate]
activity of purified enzyme with and without PLP (HILIC-UHPLC-MS) [1]: The enzyme converted all BCAAs (L-Ile, L-Leu, L-Val) and their respective α-keto acids in a PLP-dependent manner

Molecule: CCC(=O)SCCNC(=O)CCNC(=O)[C@H](O)C(C)(C)COP(=O)(O)OP(=O)(O)OC[C@H]1O[C@@H](n2cnc3c(N)ncnc32)[C@H](O)[C@@H]1OP(=O)(O)O [Prop-CoA, propionyl-CoA]
Ki [2]: 320 ± 121 µM

Molecule: CC(C)CC(=O)C(=O)O [KIC, α-ketoisocaproate]
Ki ([2]; read-out: KI): 293 ± 30.4 µM

B1: α-isopropylmalate synthase LeuA1 (Mortierella alpina) (protein)
chain: MAQANKDKLIIFDTTLRDGEQSPGVTLTVNEKIEIAKQLSRLGVDVLEAGFPVASQGDFDAVERIAIEVGPLMVGREALGKPITIAGLARAVPADIQRCYDAIAKAPHKRIHTFLATSDIHLEHKLKISRDECVKRAVAAVSFAKTLVQDVEFSPEDAGRSDQDFLCKVLSAVIEAGATTLNIPDTVGYNMPEEYGSMIKYLIANTKGSDTVIWSAHCHNDLGLATANTLSGIMNGIRQVEVTINGIGERAGNTAMEEVVMAIHTHPNFFPVYHTINTPLFFRISQLVSSLSGMAVQSNKAIVGANAFLHESGIHQDGVLKNKTTYEIISPETVGANTVNLVLGKHSGRAAFKSRLQELGFGELSDEEFQVAFNSFKTLADSKKRVTEQDLLALLSDQVSAASGDKATFVIKSLQVVSGTSFATATVQLQNSQTGDVVVDAAIGKSGPVEAVFLAIQRLVGKRIRLLKFDITAVGEGVDALGQVSVKIAEDTSSPGSSDNDETAEEAKDSESKANEISQATYHGHGADSDIIQAATKAYLNAINRLVANENERLLGERKVDV
notes: N-terminally His6-tagged LeuA1
Km (purified protein): 28.6 ± 4.1 µM
kcat (purified protein): 25 s⁻¹
kcat/Km (purified protein): 873000 M⁻¹ s⁻¹
Km [4]: 56.9 ± 6.3 µM
kcat [4]: 26.6 ± 1.2 s⁻¹
kcat/Km [4]: 467000 M⁻¹ s⁻¹
Km [5]: 280.8 ± 45.0 µM
kcat [5]: 47.4 ± 5.41 s⁻¹
kcat/Km [5]: 169000 M⁻¹ s⁻¹

Continued, values first:

Ki ([2]; read-out: KI): 53 ± 2.5 µM
Molecule: CC(C)C[C@H](N)C(=O)O [Leu, L-leucine]

stoichiometry N [3]: 6
Molecule: LeuA1, α-isopropylmalate synthase of Mortierella alpina (enzyme)
